# Assay results: paper doi:10.1101/2020.05.18.102780
# Biological target: Ktedonobacter racemifer acyl carrier protein (KrACP) (Ktedonobacter racemifer DSM 44963)
# Experiment: SDS-PAGE
substance,measurement,value
Ktedonobacter racemifer acyl carrier protein (KrACP) (natural protein),stoichiometry N,2
